# Assay results as given in patent US20160130362A1 (Genmab, published 2016).
# B1: -003 (antibody, human IgG1, V domains shown)
# VH: not shown
# VL: DIQMTQSPSSLSASVGDRVTITCRASQGISSWLAWYQQKPEKAPKSLIYAASSLQSGVPSRFSGSGSGTDFTLTISSLQPEDFATYYCQQYNSYPRTFGQGTKVEIK
# notes: Human monoclonal IgG1 antibody; The recombinant form was cloned into pConG1f0.4 (human IgG1 constant region) and pConKappa0.4 (kappa constant region); FITC-labelled in some assays; also called antibody -003; HuMab -003
# B2: -024 (antibody, human IgG1, V domains shown)
# VH: EVQLVQSGAEVKKPGESLKISCKGSGYSFSNYWIGWVRQMPGKGLEWMGIIYPHDSDARYSPSFQGQVTFSADKSISTAYLQWSSLKASDTAMYYCARHVGWGSRYWYFDLWGRGTLVTVSS
# VL: EIVLTQSPATLSLSPGERATLSCRASQSVSSYLAWYQQKPGQAPGLLIYDASNRASGIPARFSGSGSGTDFTLTISSLEPEDFAVYYCQQRSNWPLTFGGGTKVEIK
# notes: Human monoclonal IgG1 antibody; The recombinant form was cloned into pConG1f0.4 (human IgG1 constant region) and pConKappa0.4 (kappa constant region); also called antibody -024
# B3: -005 (antibody, human IgG1, V domains shown)
# VH: EVQLLESGGGLVQPGGSLRLSCAVSGFTFNSFAMSWVRQAPGKGLEWVSAISGSGGGTYYADSVKGRFTISRDNSKNTLYLQMNSLRAEDTAVYFCAKDKILWFGEPVFDYWGQGTLVTVSS
# VL: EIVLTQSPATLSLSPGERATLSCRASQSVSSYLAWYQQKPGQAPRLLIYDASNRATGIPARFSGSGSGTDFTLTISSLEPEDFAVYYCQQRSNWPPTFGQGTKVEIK
# How the values were obtained:
# [1] = target: T1, human CD38 on cells (CHO-CD38 cells, Daudi-luc cells, fresh multiple myeloma tumor cells) (human, UniProt P28907 1-300); experiment: cell-based or functional assay
# [2] = target: T1, human CD38 on cells (CHO-CD38 cells, …); experiment: flow cytometry on Daudi-luc cells, anti-human IgG-FITC detection
# [3] = target: T2, HA-CD38 (HA-tagged extracellular domain of human CD38, wild type) (human, UniProt P28907 43-300); experiment: SPR (Biacore 3000), antibody immobilized on CM-5 chip, HA-CD38 flowed over, 25° C., mean of 3 ± SD
# T2 construct: also called HA-tagged CD38; wt human CD38; not shown: HA-tag introduced by the forward PCR primer, after signal peptide SPHMM
# [4] = target: T1, human CD38 on cells (CHO-CD38 cells, …); experiment: cell-based or functional assay; remark: listed apart in the source
# [5] = target: T1, human CD38 on cells (CHO-CD38 cells, …); experiment: flow cytometry on fresh MM tumor cells, FITC-labelled antibody
# [6] = target: His-CD38 (His-tagged extracellular domain of human CD38) (human, UniProt P28907 43-300); experiment: cell-based or functional assay
# [7] = target: T1, human CD38 on cells (CHO-CD38 cells, …); experiment: cell-based or functional assay; remark: listed apart in the source
# [8] = target: T3, cynomolgus monkey CD38 (on lymphoid tissue, lymphocytes and monocytes) (cynomolgus monkey, UniProt Q5VAN0 1-301); experiment: flow cytometry on cynomolgus lymphocytes, detection with FITC-labeled rabbit anti-human IgG (Example 11)
# T3 construct: whole, on cells; also called cynomolgus CD38
# [9] = target: T1, human CD38 on cells (CHO-CD38 cells, …); experiment: flow cytometry on CHO-CD38 cells, anti-human IgG-FITC detection
# [10] = target: T1, human CD38 on cells (CHO-CD38 cells, …); experiment: cell-based or functional assay; remark: listed apart in the source
# [11] = target: T3, cynomolgus monkey CD38 (on lymphoid …); experiment: immunohistochemistry on frozen cynomolgus tissue sections
# [12] = target: T1, human CD38 on cells (CHO-CD38 cells, …); experiment: flow cytometry on CHO-CD38 cells, detection with rabbit anti-human IgG-FITC (Example 4)
Binder,"EC50, CDC of CD38-CHO cells (PI-positive cells) [1] [µg/mL]","EC50, CDC of Daudi-luc cells (PI-positive cells) [1] [µg/mL]",EC50 [2] [µg/mL],Ka [3] [M⁻¹],Kd [3] [nM],Log EC50 of lysis (table captioned CDC; the text ties log EC50 values to ADCC of Daudi cells) [4],EC50 [5] [µg/mL],"cGDPribose production (% of NGD control), 0.03 µg/ml antibody [6]","cGDPribose production (% of NGD control), 0.3 µg/ml antibody [6]","cGDPribose production (% of NGD control), 3 µg/ml antibody [6]","cGDPribose production (% of NGD control), 30 µg/ml antibody [6]",EC50 of lysis of CHO-CD38 cells (table captioned ADCC; the text ties these values to CDC) [7] [µg/mL],binding result [8],EC50 [9] [µg/mL],"EC50, ADCC of Daudi-luc cells (51Cr release) [10] [µg/mL]","EC50, ADCC of fresh MM tumor cells (51Cr release) [10] [µg/mL]",binding result [11],EC50 (read off the curve) [12] [µg/mL]
B1,3.14,> 90,0.26,1.14e+09,0.885,1.17,0.56,107 % of NGD control,107 % of NGD control,100 % of NGD control,99 % of NGD control,4.5,binds,0.54,0.009,0.027,,
B2,0.24,> 90,0.05,,,,0.02,105 % of NGD control,104 % of NGD control,100 % of NGD control,99 % of NGD control,,,0.08,0.0097,0.056,binds,~0.2
B3,,,,,,,,102 % of NGD control,98 % of NGD control,66 % of NGD control,68 % of NGD control,,,,,,,
